Values joined by “and” are separate entries in the source; they are usually repeats but may differ in a detail not shown here. Equal values may be shown once.
Tests used:
[1] = target: T1, Myc peptide (SEQ ID NO: 4) (Homo sapiens, UniProt P01106); assay: 96-well screen for phosphopeptide binding proteins, 7-spot IPR plates; details: two steps of normalization; top 9 clones
T1 construct: phosphothreonine (T58) and phosphoserine (S62) (chemical modification); purchased New England Peptide, Fitchburg Mass; host or cells: chemical synthesis
T1 sequence (P01106 with tags, fused parts or gaps limits assumed): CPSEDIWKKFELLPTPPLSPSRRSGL
Experimental: (§1) A screen was conducted using 7-spot IPR plates. The 7 spot NPT IPR plates are described in more detail in copending Provisional Application No. 60/301,932 (entitled “Assay Plates, Reader Systems and Methods for Luminescence Test Measurements”, filed on Jun. 29, 2001, hereby incorporated by reference) and particularly in the description of Plate Type D in Example 6.1 (NPT IPR plate) and U.S. application Ser. Nos. 10/185,274 and 10/185,363, filed Jun. 28, 2002, each hereby incorporated by reference. These plates consist of a 96 wells with 7 zones (spots) for the immobilization of proteins or other reagents. Each spot was coated with BSA conjugated to either a single phosphopeptide or multiple phosphopeptides.
(§2) The plates were prepared essentially as described in example 12. The seven spots supported, respectively, the following BSA conjugates IkB, pY992, pY1068, pY1148, Myc, “A”, and “6-P”. “A” refers to a conjugate of BSA with multiple peptides: IkB, pY1148, Myc which were then coupled to BSA. “6-P” refers to a conjugate of BSA with the following multiple peptides: IkB, pY1148, pY992, pY1068, Smad3C.
(§3) For the assay, 4 ul from TnT reaction product described above were added to the coated plate containing 50 μl of binding buffer supplemented with 50 ng/well Ru-Streptavidin. The binding reaction was allowed to proceed at room temperature for 1 hour with constant shaking. […] The ECL signals were measured using an imaging plate reader (IPR). The raw data from the IPR reader was then normalized using two steps of normalization. The first round was based on the 50 lowest values for a given specific spot. These 50 lowest values were averaged and divided into each signal for that spot to generate a signal value which could be compared readily between the peptide-conjugate spots. This was then followed by a second round of normalization using the lowest normalized value for a spot within a well to divide the signals from the other spots. This method provides a means to reduce the signals from proteins which bound non specifically to all the spots within a well. […]

[2] = target: T2, IkB peptide (SEQ ID NO: 1) (Homo sapiens, UniProt P25963); assay: as above; details: two steps of normalization, top 9 clones
T2 construct: two phosphoserines in the DSGLDS motif (chemical modification); purchased New England Peptide, Fitchburg Mass; host or cells: chemical synthesis
T2 sequence (P25963 with tags, fused parts or gaps limits assumed): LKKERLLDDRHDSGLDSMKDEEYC
Experimental: as §1, §2, §3

- normalized ECL signal, Myc spot [1]: 4 and 8
- normalized ECL signal, IkBa spot [2]: 12
- normalized ECL signal, IkBa spot ([2]; βTRCP positive control): 23
Substance: 3491843: IMAGE clone protein: βTRCP1 [compound 3491843]

Reference: patent US7063946B2, “Methods, reagents, kits and apparatus for protein function analysis” (Meso Scale Technologies, LLC., priority 2001, dated 2006)
